Data reported in article PMC10914587.

What was measured:
[1] = biological target: T1, sclerostin loop 3-6 (sites 127-128 mutated) (UniProt Q9BQB4 135-169, G151A;E152A); test: BLI
T1 chain: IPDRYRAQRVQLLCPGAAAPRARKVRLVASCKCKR

[2] = biological target: sclerostin (UniProt Q9BQB4 24-213); test: BLI
sclerostin, sequence (Q9BQB4 24-213): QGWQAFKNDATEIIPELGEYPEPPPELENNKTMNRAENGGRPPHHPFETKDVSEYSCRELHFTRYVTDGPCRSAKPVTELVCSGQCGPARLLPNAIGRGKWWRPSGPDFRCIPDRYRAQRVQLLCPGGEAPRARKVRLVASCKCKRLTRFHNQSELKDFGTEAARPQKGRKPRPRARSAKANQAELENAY

In the case of CGGGGTGTGGGTTCGTCGTTAGCTTGATTTGGCAGCTGCC (ssDNA) [Aptscl56], the binding result [1] is reported as “no binding” and the Kd [2] is reported as 68.6 nM.
